Experimental findings from patent US20130272958A1 (NATIONAL RESEARCH COUNCIL OF CANADA, published 2013) are described below.

The target in experiment [1] is recombinant CEACAM6 N-terminal domain (expressed in E. coli) (Homo sapiens (Human)) (UniProt P40199). Briefly: SPR (Biacore 3000), 9A6 immobilised, CEACAM6 recombinant protein injected at 0.1-200 nM. (In general: SPR reads the build-up and loss of mass on a sensor chip optically.)
Experiment [2] addresses T1, native CEACAM6 expressed by human tumor cells (BxPC3, LS174T, A549) (human, UniProt P40199 35-320).
T1 sequence: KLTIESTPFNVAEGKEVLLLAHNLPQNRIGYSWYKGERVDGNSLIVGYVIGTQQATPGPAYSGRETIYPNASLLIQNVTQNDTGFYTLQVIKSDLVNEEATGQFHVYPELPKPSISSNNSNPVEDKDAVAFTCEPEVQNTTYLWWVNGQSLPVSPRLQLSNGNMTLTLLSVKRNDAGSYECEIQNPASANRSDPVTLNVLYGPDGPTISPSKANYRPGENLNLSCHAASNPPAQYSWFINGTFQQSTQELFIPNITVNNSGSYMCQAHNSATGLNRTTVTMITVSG
Kind of experiment: cell-based or functional assay.

Experiment [3] addresses T2, recombinant CEACAM6 N-terminal domain (expressed in E. coli) (Homo sapiens (Human), UniProt P40199 35-142, limits assumed).
T2 construct: also called CEACAM6 N-domain; recombinant CEACAM6 protein (N-domain)
T2 sequence: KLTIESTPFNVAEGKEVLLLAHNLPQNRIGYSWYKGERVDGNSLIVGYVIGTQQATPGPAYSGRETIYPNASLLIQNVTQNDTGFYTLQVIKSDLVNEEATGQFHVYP
Briefly: SPR (Biacore 3000), CEACAM6 immobilised, 2A3 injected at 1-60 nM, 1:1 Langmuir fit.
Method: Immobilizations were performed with an amine-coupling kit (GE Healthcare) and carried out at 50 μg/ml CEACAM6 in 10 mM Acetate, pH 4 (GE Healthcare) and 50 μg/ml of Ovalbumin in 10 mM Acetate, pH 4.5. 120 μL of the sdAb at concentration of 1 nM to 60 nM were injected over the surfaces at a flow rate of 40 μl/min. Analyses were carried out at room temperature in HBS-EP, 10 mM HEPES pH 7.4, 150 mM NaCl, 3 mM EDTA and 0.005% surfactant P20 (GE Healthcare). Regeneration was performed with running buffer (HBS-EP). Data were analyzed with BIAevaluation software 4.1.

Experiment [4] concerns the target T3, CEACAM6 peptide NRIGYSWYKGERVDG
T3 construct: Spot on a JPT peptide array (45 peptides, 15 residues long, 10 overlapping)
T3 peptide: NRIGYSWYKGERVDG
Briefly: peptide array membrane, anti-llama detection.

The target of experiment [5] is T4, CEACAM6 peptide HNLPQNRIGYSWYKG
T4 construct: Spot on a JPT peptide array (45 peptides, 15 residues long, 10 overlapping)
T4 peptide: HNLPQNRIGYSWYKG
Briefly: peptide array membrane, anti-llama detection.

In experiment [6] the target is T2, recombinant CEACAM6 N-terminal domain …. Briefly: SPR (Biacore 3000), 2A3-Fc immobilised, CEACAM6 recombinant protein injected at 0.1-200 nM.
Method: One hundred twenty microliters of CEACAM6 recombinant protein at concentration of 0.1 nM to 200 nM was injected over the surfaces at a flow rate of 40 μl min-1. Analyses were carried out at room temperature in HBS-EP comprising 10 mM HEPES pH 7.4, 150 mM NaCl, 3 mM EDTA and 0.005% surfactant P20 (GE Healthcare). Regeneration was performed with HBS-EP used as running buffer. The data were analyzed by using BIAevaluation software 4.1.

On to “anti-CEACAM6 mouse monoclonal antibody 9A6 (Santa Cruz Biotechnology)”, for which the Kd – broadly, the free concentration of one partner at which half of the binding sites on the other are occupied at equilibrium, for simple one-to-one binding – in experiment [1] came out at 8 nM.

B1: sdAb 2A3 (engineered, with c-myc and His tags) (VHH)
VHH: QVKLEESGGGLVQAGGSLRLSCRTSGRTNSVYTMGWFRQAPGKEREFVAQIMWGAGTNTHYADSVKGRFTISRDSAESTVYLQMNSLKPEDTAVYYCAANRGIPIAGRQYDYWGQGTQVTVSS
modifications: FITC-labelled in the staining and flow cytometry assays
notes: Llama VHH expressed in the E. coli periplasm and purified by IMAC; monomer by size exclusion; also called 2A3 sdAb; FITC-2A3
On to B1, for which the “BxPC3 cell proliferation (MTT assay), IC50” value in experiment [2] amounted to 6500 nM. In experiment [3], the Kd stood at 4.7 nM; the koff (in general, the rate constant with which the complex falls apart) is 0.0053 s⁻¹; the association rate constant (kon) – broadly, a measure of how fast the partners come together – is 1.1e+06 M⁻¹ s⁻¹. Besides, the binding result in experiment [4] was “binds”. Also, in experiment [5], the binding result is reported as “binds”.

B2: 2A3-Fc (2A3 sdAb fused to mouse Fc2b fragment) (Fc fusion)
chain: B1 VHH
modifications: FITC, Alexa Fluor 594 or 64Cu-DOTA label in some assays
notes: Expressed in 293-6E cells and purified on Protein G; about 80 kDa, bivalent; also called 2A3-mFc; 2A3mFc; not shown: mouse Fc2b fragment (Fc of mouse IgG2b) from vector pTT5
Take B2: the “BxPC3 cell proliferation (MTT assay), IC50” value in experiment [2] came to 8000 nM. For the same molecule, the Kd in experiment [6] is 13 nM.
